In US20050037961A1 (BAYLOR COLLEGE OF MEDICINE, published 2005):

T1: endogenous SRF (αMHC-CRP2 mouse heart nuclear extract) (mouse, UniProt Q9JM73 1-504)
T1 sequence (looked up): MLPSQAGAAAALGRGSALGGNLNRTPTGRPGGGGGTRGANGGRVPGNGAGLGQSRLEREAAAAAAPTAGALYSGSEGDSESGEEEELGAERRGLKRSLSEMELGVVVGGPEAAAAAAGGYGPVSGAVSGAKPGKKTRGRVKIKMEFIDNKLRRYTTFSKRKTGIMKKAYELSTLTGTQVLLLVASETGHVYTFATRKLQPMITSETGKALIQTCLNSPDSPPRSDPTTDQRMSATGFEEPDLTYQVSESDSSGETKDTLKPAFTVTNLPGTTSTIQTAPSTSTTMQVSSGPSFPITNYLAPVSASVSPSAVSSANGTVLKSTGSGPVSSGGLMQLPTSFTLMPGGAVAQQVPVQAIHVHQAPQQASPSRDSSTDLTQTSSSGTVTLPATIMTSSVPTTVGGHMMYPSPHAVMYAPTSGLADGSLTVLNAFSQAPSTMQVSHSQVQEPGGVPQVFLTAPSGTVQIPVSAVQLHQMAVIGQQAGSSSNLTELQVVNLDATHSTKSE

T2: GST-SRF (human, UniProt P11831 1-508)
T2 construct: also called GST-SRF fusion protein; not shown: glutathione S-transferase encoded by vector pGEX-2T
T2 sequence (looked up): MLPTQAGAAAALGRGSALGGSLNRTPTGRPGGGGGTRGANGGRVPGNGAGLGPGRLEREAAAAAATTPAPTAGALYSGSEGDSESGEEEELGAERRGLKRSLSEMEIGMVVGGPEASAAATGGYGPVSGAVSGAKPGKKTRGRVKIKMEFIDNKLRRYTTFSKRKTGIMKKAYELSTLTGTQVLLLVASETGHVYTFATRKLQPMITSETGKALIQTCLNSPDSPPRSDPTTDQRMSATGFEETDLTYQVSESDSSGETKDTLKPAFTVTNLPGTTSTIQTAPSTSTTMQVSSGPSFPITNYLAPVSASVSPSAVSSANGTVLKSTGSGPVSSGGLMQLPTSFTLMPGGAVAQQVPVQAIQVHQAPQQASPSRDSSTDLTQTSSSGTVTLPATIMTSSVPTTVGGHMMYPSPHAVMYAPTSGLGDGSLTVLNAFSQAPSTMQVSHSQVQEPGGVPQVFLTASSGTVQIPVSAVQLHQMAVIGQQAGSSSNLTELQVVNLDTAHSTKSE

B1: Id1, endogenous cardiac bHLH transcription factor (other, mouse, UniProt P20067 1-168, looked up)
chain: MKVASGSAAAAAGPSCSLKAGRTAGEVVLGLSEQSVAISRCAGTRLPALLDEQQVNVLLYDMNGCYSRLKELVPTLPQNRKVSKVEILQHVIDYIRDLQLELNSESEVGTTGGRGLPVRAPLSTLNGEISALAAEVRSESEYYIILQWETEATGGGCPPSLLFRRIAI
B2: FLAG-tagged rat CRP2 (αMHC-CRP2 transgene) (other, UniProt Q62908 1-193, looked up, not shown: small tags and cut ends)
chain: MPVWGGGNKCGACGRTVYHAEEVQCDGRTFHRCCFLCMVCRKNLDSTTVAIHDEEIYCKSCYGKKYGPKGYGYGQGAGTLNMDRGERLGIKPESAQPHRPTTNPNTSKFAQKYGGAEKCSRCGDSVYAAEKIIGAGKPWHKNCFRCAKCGKSLESTTLTEKEGEIYCKGCYAKNFGPKGFGYGQGAGALVHAQ
notes: Expressed in cardiomyocytes of transgenic mice and assayed in nuclear and cytoplasmic heart extracts; also called FLAG-CRP2; FLAG-tagged CRP2
B3: CRP2ZF2+ZF3 (aa 35-145) (other, rat, UniProt Q62908 35-145, looked up, not shown: small tags and cut ends)
chain: FLCMVCRKNLDSTTVAIHDEEIYCKSCYGKKYGPKGYGYGQGAGTLNMDRGERLGIKPESAQPHRPTTNPNTSKFAQKYGGAEKCSRCGDSVYAAEKIIGAGKPWHKNCFR
notes: range 35-145; also called C2ZF2+ZF3

Legend:
[1] = target: B2; assay: co-IP from nuclear extracts of αMHC-CRP2 transgenic mouse hearts
[2] = target: T1, endogenous SRF (αMHC-CRP2 mouse heart …); assay: as above
[3] = target: endogenous GATA6 (αMHC-CRP2 mouse heart nuclear extract) (mouse, UniProt Q61169 1-589, limits assumed); assay: as above
endogenous GATA6 (αMHC-CRP2 mouse heart nuclear extract), sequence (Q61169 whole entry): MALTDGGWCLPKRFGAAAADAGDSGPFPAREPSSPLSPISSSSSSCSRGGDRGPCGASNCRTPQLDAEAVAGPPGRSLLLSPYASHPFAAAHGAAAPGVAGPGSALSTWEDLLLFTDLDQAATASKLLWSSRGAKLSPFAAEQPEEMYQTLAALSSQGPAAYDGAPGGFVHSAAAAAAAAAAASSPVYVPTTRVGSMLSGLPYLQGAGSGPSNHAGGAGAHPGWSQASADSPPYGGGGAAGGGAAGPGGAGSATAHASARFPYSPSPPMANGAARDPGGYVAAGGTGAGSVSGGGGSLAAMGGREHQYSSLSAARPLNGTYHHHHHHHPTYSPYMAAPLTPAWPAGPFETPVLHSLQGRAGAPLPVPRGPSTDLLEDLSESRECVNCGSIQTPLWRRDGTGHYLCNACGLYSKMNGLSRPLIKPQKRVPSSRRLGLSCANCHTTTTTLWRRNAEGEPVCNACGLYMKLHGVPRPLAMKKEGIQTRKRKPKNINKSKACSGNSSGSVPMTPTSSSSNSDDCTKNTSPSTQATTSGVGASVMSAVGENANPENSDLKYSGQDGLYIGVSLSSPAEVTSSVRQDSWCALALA

[4] = target: T1, endogenous SRF (αMHC-CRP2 mouse heart …); assay: co-IP from nuclear extracts of αMHC-CRP2 transgenic mouse hearts, immunoblot
Method: Right panels, co-immunoprecipitation were performed using ˜0.2 mg of cytoplasmic extracts (C.E.) and antibodies against FLAG-epitope, actinin or tubulin (lanes 7, 8 and 9, respectively). In lanes 4 and 10, no antibody was added in the immunoprecipitation step, serving as negative controls. In lanes 5, 6, 11 and 12, 10% of input proteins were loaded as positive controls. […] Bound proteins (lane 2-7) and 10% of input nuclear extracts (lane 1) were resolved on 4-20% SDS-PAGE gels and immunoblotted with antibodies against Brg1 (top panel) or Brm (bottom panel) of SWI/SNF remodeling complexes. […] Immune complexes were separated by 4-20% SDS-PAGE gels and immunoblotted with antibodies against V5 or Brg1.
In vivo co-immunoprecipitation (co-IP) was accomplished by enriching the starting materials in two steps. First, several whole heart were homogenized and centrifuged briefly to remove extracellular components. Cell pellet was then lysed and harvested separately for cytoplasmic and nuclear extracts.

GST-SRF = target: T2, GST-SRF; assay: GST-SRF pull-down of 35S-labelled in vitro translated protein
Method: GST (lane 2) or MBP (lane 5) protein was used as negative control. The associated proteins were visualized by autoradiography. One-fifth the amount of labeled translated proteins was loaded as positive control (lane 1, 4). […] The associated proteins were visualized by autoradiography. One-fifth the amount of labeled translated proteins was loaded as positive control (lane 1).
In vitro translation of various [³⁵S] methionine-labeled protein products were performed using rabbit reticulocyte lysates from TnT In vitro Translation kit (Promega).

Binder: B1
binding result [1]: no binding
binding result [2]: no binding
binding result [3]: no binding

Binder: B2
binding result [4]: binds

Binder: B3
binding result (GST-SRF): no binding
